Among the data in patent publication US20180318417A1 (COMPASS THERAPEUTICS, published 2018) are binding result and Kd values, retold here.

Experiment [1] has as its target T1, Recombinant human PD-1 Fc fusion protein (Sino Biological) (human, UniProt Q15116 25-167).
T1 construct: not shown: Fc part of the bought fusion protein
Kind of experiment: ForteBio Octet BLI; antigen-Fc on Protein A sensor, construct in solution.

For experiment [2], the target named is T2, Recombinant human Her2 Fc fusion protein (Sino Biological) (human, UniProt P04626 23-652).
T2 construct: not shown: Fc part of the bought fusion protein
The experiment is described as above.

The target of experiment [3] is T3, Recombinant human CD137 Fc fusion protein (Sino Biological) (human, UniProt Q07011 24-186).
T3 construct: not shown: Fc part of the bought fusion protein
Briefly: ForteBio Octet BLI; antigen-Fc on Protein A sensor, 100 nM construct. The method, then:
(§1) Antigen binding of MIAC constructs were analyzed using ForteBio Octet. […] All antigens were reconstituted in PBS at the final concentration of 0.25 ug/ul. […] Association proceeded by dipping sensors in 100 nM MIAC constructs for 5 minutes and disassociation occurred in blank kinetics buffer for 5 minutes. For CD3 epsilon binding, antigen was immobilized on Ni-NTA sensors; association was performed in 50 nM MIAC constructs. Binding data were analyzed using ForteBio Data Analysis 9.0 software.

The target of experiment [4] is T3, Recombinant human CD137 Fc fusion …. Kind of experiment: ForteBio Octet BLI; antigen-Fc on Protein A sensor, construct in solution.
Experiment [5] concerns the target T1, Recombinant human PD-1 Fc fusion …. Kind of experiment: ForteBio Octet BLI; antigen-Fc on Protein A sensor, 100 nM construct. As for the experimental part:
as §1

T1 sequence (Q15116 25-167 limits assumed): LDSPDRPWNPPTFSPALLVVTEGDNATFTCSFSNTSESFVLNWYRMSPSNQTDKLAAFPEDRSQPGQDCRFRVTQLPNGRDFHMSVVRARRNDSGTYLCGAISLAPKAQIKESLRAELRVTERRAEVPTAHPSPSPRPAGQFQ

B1: PID-90 (monospecific anti-CD137; Urelumab Fab domain, human IgG1 constant domain) (antibody, V domains shown)
VH: QVQLQQWGAGLLKPSETLSLTCAVYGGSFSGYYWSWIRQSPEKGLEWIGEINHGGYVTYNPSLESRVTISVDTSKNQFSLKLSSVTAADTAVYYCARDYGPGNYDWYFDLWGRGTLVTVSS
VL: EIVLTQSPATLSLSPGERATLSCRASQSVSSYLAWYQQKPGQAPRLLIYDASNRATGIPARFSGSGSGTDFTLTISSLEPEDFAVYYCQQRSNWPPALTFGGGTKVEIKR
notes: also called PID90 (CD137)
In the case of B1, the binding result in experiment [1] and in experiment [2] was “no binding (tested: 100 nM)” each time. The Kd in experiment [3] was found to be 0.7 nM.

B2: PID-2 (monospecific anti-PD-1; Pembrolizumab Fab domain, human IgG1 constant domain) (antibody, V domains shown)
VH: QVQLVQSGVEVKKPGASVKVSCKASGYTFTNYYMYWVRQAPGQGLEWMGGINPSNGGTNFNEKFKNRVTLTTDSSTTTAYMELKSLQFDDTAVYYCARRDYRFDMGFDYWGQGTTVTVSS
VL: EIVLTQSPATLSLSPGERATLSCRASKGVSTSGYSYLHWYQQKPGQAPRLLIYLASYLESGVPARFSGSGSGTDFTLTISSLEPEDFAVYYCQHSRDLPLTFGGGTKVEIKR
notes: also called PID2 (PD-1)
On to B2, for which the binding result in experiment [4] and in experiment [2] was “no binding (tested: 100 nM)” in each case.

B3: PID-92 (bispecific Her2/CD137 MIAC; Urelumab IgG1 with Trastuzumab scFv at the heavy chain C-termini) (bispecific antibody)
heavy: not shown
light: not shown
notes: also called α-Her2/α-CD137 MIAC; PID92 [Her2/CD137]
Take B3: the binding result in experiment [1] is listed as “no binding (tested: 100 nM)”. Moreover, the Kd in experiment [3] was determined as 0.23 nM.

B4: PID-7 (bispecific Her2/PD-1 MIAC; Pembrolizumab IgG1 with Trastuzumab scFv at the heavy chain C-termini) (bispecific antibody)
heavy: not shown
light: EIVLTQSPATLSLSPGERATLSCRASKGVSTSGYSYLHWYQQKPGQAPRLLIYLASYLESGVPARFSGSGSGTDFTLTISSLEPEDFAVYYCQHSRDLPLTFGGGTKVEIKRTVAAPSVFIFPPSDEQLKSGTASVVCLLNNFYPREAKVQWKVDNALQSGNSQESVTEQDSKDSTYSLSSTLTLSKADYEKHKVYACEVTHQGLSSPVTKSFNRGEC
notes: also called α-Her2/α-PD-1
As for B4, the binding result in experiment [4] was “no binding (tested: 100 nM)”. For the same molecule, the Kd in experiment [5] turned out to be 0.12 nM.
